{
  "source": "patent US20190331690A1",
  "about": "“BIOTHIOL DETECTION COMPOSITION COMPRISING REDOX REGULATION PROTENIN” (INDUSTRY-UNIVERSITY COOPERATION FOUNDATION HANYANG …, priority 2016, published 2019)",
  "molecules": {"B1": {"name": "OhrR: redox-regulating protein, organic hydroperoxide regulator, cloned in B. subtilis strain, SEQ ID NO: 3, homodimer, 17 kD (protein, listed as Bacillus subtilis)", "chain": "MENKFDHMKLENQLCFLLYASSREMTKQYKPLLDKLNITYPQYLALLLLWEHETLTVKKMGEQLYLDSGTLTPMLKRMEQQGLITRKRSEEDERSVLISLTEDGALLKEKAVDIPGTILGLSKQSGEDLKQLKSALYTLLETLHQKN", "modifications": "homodimer"}},
  "key": {"DNA": {"molecular_target": "DNA", "experiment": "DNA binding strength of OhrR"}, "[1]": {"experiment": "Second order reaction rate between a biothiol and the redox-regulating protein", "format": "biochemical"}, "[2]": {"test_system": "FAM-bound double strand (ds) DNA [SEQ ID NOs: 1 and 2]", "experiment": "OhrR and target DNA binding by polyacrylamide gel electrophoresis", "conditions": "dsDNA 200 nM, room temperature 30 minutes, 7% polyacrylamide gel", "procedure": "Fluorescent probe (FAM)-bound double strand (ds) DNA (200 nM) [SEQ ID NOs: 1 and 2] and OhrR at concentrations shown in FIG. 3 were mixed and reacted at room temperature for 30 minutes, and then a dsDNA band was detected using a fluorescence spectrometer (KIF-300, Korea Lab Tech, Korea) through electrophoresis (25 mA, 30 min) using a polyacrylamide gel (7%). It can be seen that the fluorescent band of dsDNA shifted upward from an OhrR concentration of about 1.6 μM (concentration about 8 fold higher than DNA concentration)."}, "[3]": {"test_system": "biotin-binding dsDNA [SEQ ID NOs: 1 and 2]", "experiment": "Biolayer interferometry of DNA and OhrR binding on a photosensor", "procedure": "A binding degree between DNA and a protein on the surface of a photosensor (optical fiber) was measured using an instrument for biolayer interferometry (Blitz, Fortebio, USA).\nBinding buffer, washing buffer: TBS (Tris 20 mM, NaCl 150 mM)\nDNA binding time, OhrR binding time: 2 min\nDNA concentration: 2.5 μM\nOhrR concentration: 50 μM\nCHP concentration: 100 μM\nFirst, biotin-binding dsDNA [SEQ ID NOs: 1 and 2] was dissolved in a TBS buffer at the above-mentioned concentration, bound to a streptavidin-coated photosensor (optical fiber) by flowing the resulting mixture for 120 seconds, and washed with a buffer, and then the OhrR protein was associated with dsDNA binding to the photosensor by additionally flowing the protein dissolved in a TBS buffer at the above-described concentration for 120 seconds (association). After the association was completed, by additionally flowing only a buffer for 120 seconds, the dissociation process of the DNA-OhrR complex was confirmed (dissociation).\nIn biolayer interferometry, when a biomaterial (DNA or OhrR) is bound to the surface of a photosensor, a change in the surface refractive index of the photosensor is necessarily accompanied (the refractive index has a positive correlation with the concentration of a biomaterial), and the principle of converting the change in refractive index to a thickness is applied. […]"}},
  "data": [
    {"molecule": "B1", "values": [
      {"measurement": "Kd", "setting": "DNA", "result": "≤ 1", "unit": "nM"},
      {"measurement": "second order reaction rate between a biothiol and the redox-regulating protein", "setting": "[1]", "result": "about 10^3 M^−1s^−1"},
      {"measurement": "OhrR concentration from which the fluorescent band of dsDNA shifted upward", "setting": "[2]", "result": "about 1.6 μM"},
      {"measurement": "binding thickness (dissociation equilibrium of OhrR minus dsDNA binding equilibrium)", "setting": "[3]; OhrR 50 μM, DNA 2.5 μM, without CHP and biothiol", "result": "about 4.3 nm"},
      {"measurement": "binding thickness", "setting": "[3]; in the presence of both CHP and a biothiol", "result": "about 1 nm"}
    ]}
  ]
}
